{
  "source": "patent US20230220042A1",
  "about": "(SHANGHAI JIAO TONG UNIVERSITY SCHOOL OF MEDICINE, published 2023)",
  "data": [
    {"biological_target": "T1, Biotin-FcγRIIB (human FcγRIIB, Sino Biological) (human, UniProt P31994 43-217, limits assumed, biotin-labeled)", "T1 construct": "Used at 1 µg/ml with Streptavidin-APC for flow cytometry and sorting; also called CD32b", "T1 sequence (looked up)": "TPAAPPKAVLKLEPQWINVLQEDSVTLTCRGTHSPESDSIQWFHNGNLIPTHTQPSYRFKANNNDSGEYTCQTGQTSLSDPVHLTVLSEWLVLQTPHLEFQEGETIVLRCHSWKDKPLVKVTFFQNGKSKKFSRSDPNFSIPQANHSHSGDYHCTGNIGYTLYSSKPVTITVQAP", "assay": "NGS after FACS sort of 3T3-displayed LibraryMix for biotin-FcγRIIB binding", "values": [
      {"binder": "human IgG2 anti-mouse CD40 surface displayed antibody, P271G/S298K (antibody, name in EU numbering, m1 with these Fc mutations (Eu numbering); copies: 2 + 2) light chain (with the P2A rest): DTVLTQSPALAVSPGERVTISCRASDSVSTLMHWYQQKPGQQPKLLIYLASHLESGVPARFSGSGSGTDFTLTIDPVEADDTATYYCQQSWNDPWTFGGGTKLELKRTVAAPSVFIFPPSDEQLKSGTASVVCLLNNFYPREAKVQWKVDNALQSGNSQESVTEQDSKDSTYSLSSTLTLSKADYEKHKVYACEVTHQGLSSPVTKSFNRGECGSGATNFSLLKQAGDVEENPG heavy chain: EVQLVESDGGLVQPGRSLKLPCAASGFTFSDYYMAWVRQAPTKGLEWVASISYDGSSTYYRDSVKGRFTISRDNAKSTLYLQMDSLRSEDTATYYCGRHSSYFDYWGQGVMVTVSSASTKGPSVFPLAPCSRSTSESTAALGCLVKDYFPEPVTVSWNSGALTSGVHTFPAVLQSSGLYSLSSVVTVPSSNFGTQTYTCNVDHKPSNTKVDKTVERKCCVECPPCPAPPVAGPSVFLFPPKPKDTLMISRTPEVTCVVVDVSHEDGEVQFNWYVDGVEVHNAKTKPREEQFNKTFRVVSVLTVVHQDWLNGKEYKCKVSNKGLPAPIEKTISKTKGQPREPQVYTLPPSREEMTKNQVSLTCLVKGFYPSDIAVEWESNGQPENNYKTTPPMLDSDGSFFLYSKLTVDKSRWQQGNVFSCSVMHEALHNHYTQKSLSLSPGKLEPPPSTVSNMATVAVLVVLGAAIVTGAVVAFVMKMRRRNTGGKGGDYALAPGSQTSDLSLPDCKVMVHDPHSLA", "Enrichment factor (percentage after sorting/percentage before sorting)": 10.2, "Increased factor (enrichment factor/wild-type enrichment factor)": 13.6},
      {"binder": "human IgG2 anti-mouse CD40 surface displayed antibody, P271G/S298L (antibody, name in EU numbering, m1 with these Fc mutations (Eu numbering); copies: 2 + 2) light chain (with the P2A rest): DTVLTQSPALAVSPGERVTISCRASDSVSTLMHWYQQKPGQQPKLLIYLASHLESGVPARFSGSGSGTDFTLTIDPVEADDTATYYCQQSWNDPWTFGGGTKLELKRTVAAPSVFIFPPSDEQLKSGTASVVCLLNNFYPREAKVQWKVDNALQSGNSQESVTEQDSKDSTYSLSSTLTLSKADYEKHKVYACEVTHQGLSSPVTKSFNRGECGSGATNFSLLKQAGDVEENPG heavy chain: EVQLVESDGGLVQPGRSLKLPCAASGFTFSDYYMAWVRQAPTKGLEWVASISYDGSSTYYRDSVKGRFTISRDNAKSTLYLQMDSLRSEDTATYYCGRHSSYFDYWGQGVMVTVSSASTKGPSVFPLAPCSRSTSESTAALGCLVKDYFPEPVTVSWNSGALTSGVHTFPAVLQSSGLYSLSSVVTVPSSNFGTQTYTCNVDHKPSNTKVDKTVERKCCVECPPCPAPPVAGPSVFLFPPKPKDTLMISRTPEVTCVVVDVSHEDGEVQFNWYVDGVEVHNAKTKPREEQFNLTFRVVSVLTVVHQDWLNGKEYKCKVSNKGLPAPIEKTISKTKGQPREPQVYTLPPSREEMTKNQVSLTCLVKGFYPSDIAVEWESNGQPENNYKTTPPMLDSDGSFFLYSKLTVDKSRWQQGNVFSCSVMHEALHNHYTQKSLSLSPGKLEPPPSTVSNMATVAVLVVLGAAIVTGAVVAFVMKMRRRNTGGKGGDYALAPGSQTSDLSLPDCKVMVHDPHSLA", "Enrichment factor (percentage after sorting/percentage before sorting)": 188, "Increased factor (enrichment factor/wild-type enrichment factor)": 252},
      {"binder": "human IgG2 anti-mouse CD40 surface displayed antibody, P271G/S298R (antibody, name in EU numbering, m1 with these Fc mutations (Eu numbering); copies: 2 + 2) light chain (with the P2A rest): DTVLTQSPALAVSPGERVTISCRASDSVSTLMHWYQQKPGQQPKLLIYLASHLESGVPARFSGSGSGTDFTLTIDPVEADDTATYYCQQSWNDPWTFGGGTKLELKRTVAAPSVFIFPPSDEQLKSGTASVVCLLNNFYPREAKVQWKVDNALQSGNSQESVTEQDSKDSTYSLSSTLTLSKADYEKHKVYACEVTHQGLSSPVTKSFNRGECGSGATNFSLLKQAGDVEENPG heavy chain: EVQLVESDGGLVQPGRSLKLPCAASGFTFSDYYMAWVRQAPTKGLEWVASISYDGSSTYYRDSVKGRFTISRDNAKSTLYLQMDSLRSEDTATYYCGRHSSYFDYWGQGVMVTVSSASTKGPSVFPLAPCSRSTSESTAALGCLVKDYFPEPVTVSWNSGALTSGVHTFPAVLQSSGLYSLSSVVTVPSSNFGTQTYTCNVDHKPSNTKVDKTVERKCCVECPPCPAPPVAGPSVFLFPPKPKDTLMISRTPEVTCVVVDVSHEDGEVQFNWYVDGVEVHNAKTKPREEQFNRTFRVVSVLTVVHQDWLNGKEYKCKVSNKGLPAPIEKTISKTKGQPREPQVYTLPPSREEMTKNQVSLTCLVKGFYPSDIAVEWESNGQPENNYKTTPPMLDSDGSFFLYSKLTVDKSRWQQGNVFSCSVMHEALHNHYTQKSLSLSPGKLEPPPSTVSNMATVAVLVVLGAAIVTGAVVAFVMKMRRRNTGGKGGDYALAPGSQTSDLSLPDCKVMVHDPHSLA", "Enrichment factor (percentage after sorting/percentage before sorting)": 16, "Increased factor (enrichment factor/wild-type enrichment factor)": 21.4},
      {"binder": "human IgG2 anti-mouse CD40 surface displayed antibody, P271G/S298N (antibody, name in EU numbering, m1 with these Fc mutations (Eu numbering); copies: 2 + 2) light chain (with the P2A rest): DTVLTQSPALAVSPGERVTISCRASDSVSTLMHWYQQKPGQQPKLLIYLASHLESGVPARFSGSGSGTDFTLTIDPVEADDTATYYCQQSWNDPWTFGGGTKLELKRTVAAPSVFIFPPSDEQLKSGTASVVCLLNNFYPREAKVQWKVDNALQSGNSQESVTEQDSKDSTYSLSSTLTLSKADYEKHKVYACEVTHQGLSSPVTKSFNRGECGSGATNFSLLKQAGDVEENPG heavy chain: EVQLVESDGGLVQPGRSLKLPCAASGFTFSDYYMAWVRQAPTKGLEWVASISYDGSSTYYRDSVKGRFTISRDNAKSTLYLQMDSLRSEDTATYYCGRHSSYFDYWGQGVMVTVSSASTKGPSVFPLAPCSRSTSESTAALGCLVKDYFPEPVTVSWNSGALTSGVHTFPAVLQSSGLYSLSSVVTVPSSNFGTQTYTCNVDHKPSNTKVDKTVERKCCVECPPCPAPPVAGPSVFLFPPKPKDTLMISRTPEVTCVVVDVSHEDGEVQFNWYVDGVEVHNAKTKPREEQFNNTFRVVSVLTVVHQDWLNGKEYKCKVSNKGLPAPIEKTISKTKGQPREPQVYTLPPSREEMTKNQVSLTCLVKGFYPSDIAVEWESNGQPENNYKTTPPMLDSDGSFFLYSKLTVDKSRWQQGNVFSCSVMHEALHNHYTQKSLSLSPGKLEPPPSTVSNMATVAVLVVLGAAIVTGAVVAFVMKMRRRNTGGKGGDYALAPGSQTSDLSLPDCKVMVHDPHSLA", "Enrichment factor (percentage after sorting/percentage before sorting)": 18, "Increased factor (enrichment factor/wild-type enrichment factor)": 24},
      {"binder": "human IgG2 anti-mouse CD40 surface displayed antibody, P271G/T299A (antibody, name in EU numbering, m1 with these Fc mutations (Eu numbering); copies: 2 + 2) light chain (with the P2A rest): DTVLTQSPALAVSPGERVTISCRASDSVSTLMHWYQQKPGQQPKLLIYLASHLESGVPARFSGSGSGTDFTLTIDPVEADDTATYYCQQSWNDPWTFGGGTKLELKRTVAAPSVFIFPPSDEQLKSGTASVVCLLNNFYPREAKVQWKVDNALQSGNSQESVTEQDSKDSTYSLSSTLTLSKADYEKHKVYACEVTHQGLSSPVTKSFNRGECGSGATNFSLLKQAGDVEENPG heavy chain: EVQLVESDGGLVQPGRSLKLPCAASGFTFSDYYMAWVRQAPTKGLEWVASISYDGSSTYYRDSVKGRFTISRDNAKSTLYLQMDSLRSEDTATYYCGRHSSYFDYWGQGVMVTVSSASTKGPSVFPLAPCSRSTSESTAALGCLVKDYFPEPVTVSWNSGALTSGVHTFPAVLQSSGLYSLSSVVTVPSSNFGTQTYTCNVDHKPSNTKVDKTVERKCCVECPPCPAPPVAGPSVFLFPPKPKDTLMISRTPEVTCVVVDVSHEDGEVQFNWYVDGVEVHNAKTKPREEQFNSAFRVVSVLTVVHQDWLNGKEYKCKVSNKGLPAPIEKTISKTKGQPREPQVYTLPPSREEMTKNQVSLTCLVKGFYPSDIAVEWESNGQPENNYKTTPPMLDSDGSFFLYSKLTVDKSRWQQGNVFSCSVMHEALHNHYTQKSLSLSPGKLEPPPSTVSNMATVAVLVVLGAAIVTGAVVAFVMKMRRRNTGGKGGDYALAPGSQTSDLSLPDCKVMVHDPHSLA", "Enrichment factor (percentage after sorting/percentage before sorting)": 6.28, "Increased factor (enrichment factor/wild-type enrichment factor)": 8.39}
    ]}
  ]
}
